In this data set the target is HCV NS3 helicase (WT) (Hepatitis C virus (subgenomic replicon …, UniProt Q9WMX2 1027-1657)). The experiment in a line: competition.

Usually Ki stands for the equilibrium dissociation constant of an inhibitor or competing ligand from its target. High values mean a looser hold on the target, low ones a stronger hold on the target.

Sequence of HCV NS3 helicase (WT) (Hepatitis C virus (Q9WMX2 1027-1657): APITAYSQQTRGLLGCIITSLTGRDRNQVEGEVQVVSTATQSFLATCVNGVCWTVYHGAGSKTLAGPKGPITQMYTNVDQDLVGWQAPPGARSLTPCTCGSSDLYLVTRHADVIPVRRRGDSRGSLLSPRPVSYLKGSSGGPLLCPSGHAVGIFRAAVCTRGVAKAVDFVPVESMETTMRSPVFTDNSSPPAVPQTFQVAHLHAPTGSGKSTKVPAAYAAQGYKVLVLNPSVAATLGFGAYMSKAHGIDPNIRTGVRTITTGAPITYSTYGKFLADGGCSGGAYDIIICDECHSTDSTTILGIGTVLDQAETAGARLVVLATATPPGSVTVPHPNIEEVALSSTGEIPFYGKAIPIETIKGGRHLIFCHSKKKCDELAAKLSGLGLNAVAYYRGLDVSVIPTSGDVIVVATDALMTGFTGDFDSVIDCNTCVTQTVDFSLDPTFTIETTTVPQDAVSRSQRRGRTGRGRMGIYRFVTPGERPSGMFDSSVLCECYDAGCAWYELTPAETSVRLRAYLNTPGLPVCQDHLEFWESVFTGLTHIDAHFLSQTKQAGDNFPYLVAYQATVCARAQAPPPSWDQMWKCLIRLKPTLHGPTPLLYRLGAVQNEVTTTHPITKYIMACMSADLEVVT

B1: ds9 (competitor duplex) (dsRNA)
RNA 1: GCCGCCCGG
RNA 2: CCGGGCGGC
B1 registered an inhibitory constant (Ki) of 90 ± 20 nM.

The record behind these values is publication PMC2831328.
